Paper PMC11391413

Key:
full-length GRB2 (human) = full-length GRB2 (human) (UniProt P62993); assay: NMR titration; 15N-labelled full-length GRB2 (about 200-270 uM) titrated with SOS1 PRM peptides (up to 1:12 S4, 1:36 S5 and S9, 1:24 S10), 2D 1H-15N HSQC, 25 °C, 20 mM sodium phosphate, 0.05% NaN3; global fit of residues with CSP over 0.03 ppm to an independent two-site model (values in parentheses: single-binding site model)
[1] = target: SOS1 S5 (Homo sapiens), Q07889; assay: NMR

KD1 (NSH3 site, independent two-site model) (full-length GRB2 (human))	KD2 (CSH3 site, independent two-site model) (full-length GRB2 (human))	KD for NSH3, single-binding site model (full-length GRB2 (human))	Kd [1]	Binder
483 µM	579 µM	–	–	PKLPPKTYKREH [SOS1 S10 PRM (…)]
28.4 µM	516 µM	35 µM	–	IAGPPVPPRQST [SOS1 S9 PRM (…)]
–	–	–	40.9 µM	GRB2 NSH3, P62993 (protein) MEAIAKYDFKATADDELSFKRGDILKVLNEECDQNWYKAELNGKDGFIPKNYIEMKPH
40.9 µM	901 µM	44.9 µM	–	DSPPAIPPRQPT [SOS1 S5 PRM (…)]
–	–	–	901 µM	GRB2 CSH3, P62993 (protein) QQPTYVQALFDFDPQEDGELGFRRGDFIHVMDNSDPNWWKGACHGQTGMFPRNYVTPVNR
